Measured values as given in article PMC9482650, “Quantitative fragmentomics allow affinity mapping of interactomes” (Nature Communications, 2022).

T1: CARD11, Q9BXL7
T1 sequence (Q9BXL7 662-765, limits assumed, looked up): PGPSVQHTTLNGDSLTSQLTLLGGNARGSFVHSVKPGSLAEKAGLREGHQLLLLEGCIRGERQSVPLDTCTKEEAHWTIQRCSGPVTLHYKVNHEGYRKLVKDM

T2: DLG3_2, Q92796
T2 sequence (Q92796 221-321, limits assumed, looked up): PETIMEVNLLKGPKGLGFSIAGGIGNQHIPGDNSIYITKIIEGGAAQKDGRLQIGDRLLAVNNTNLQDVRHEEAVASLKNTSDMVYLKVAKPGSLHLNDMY

T3: FRMPD1, Q5SYB0
T3 sequence (Q5SYB0 52-145, limits assumed, looked up): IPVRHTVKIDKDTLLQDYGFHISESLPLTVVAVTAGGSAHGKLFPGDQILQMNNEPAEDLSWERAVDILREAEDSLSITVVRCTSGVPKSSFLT

T4: GRIP1_4, Q9Y3R0
T4 sequence (Q9Y3R0 467-571, limits assumed, looked up): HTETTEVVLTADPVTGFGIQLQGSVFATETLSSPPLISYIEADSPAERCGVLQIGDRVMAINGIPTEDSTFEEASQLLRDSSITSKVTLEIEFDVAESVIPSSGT

T5: LIN7A, O14910
T5 sequence (O14910 103-200, limits assumed, looked up): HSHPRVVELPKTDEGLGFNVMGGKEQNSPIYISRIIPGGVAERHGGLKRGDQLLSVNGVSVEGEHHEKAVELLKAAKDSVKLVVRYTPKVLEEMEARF

T6: MPP6, Q9NZW5
T6 sequence (Q9NZW5 125-219, limits assumed, looked up): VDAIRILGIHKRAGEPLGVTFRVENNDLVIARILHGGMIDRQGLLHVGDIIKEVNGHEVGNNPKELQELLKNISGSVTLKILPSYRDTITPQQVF

T7: MPP7, Q5T2T1
T7 sequence (Q5T2T1 134-230, limits assumed, looked up): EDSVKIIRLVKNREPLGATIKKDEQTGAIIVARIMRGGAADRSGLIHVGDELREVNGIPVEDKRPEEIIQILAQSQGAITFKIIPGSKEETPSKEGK

T8: RAPGEF6, Q8TEU7
T8 sequence (Q8TEU7 525-625, limits assumed, looked up): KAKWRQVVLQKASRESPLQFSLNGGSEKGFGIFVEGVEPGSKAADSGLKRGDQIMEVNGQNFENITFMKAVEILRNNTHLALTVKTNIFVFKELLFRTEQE

T9: SNTG1, Q9NSN8
T9 sequence (Q9NSN8 52-150, limits assumed, looked up): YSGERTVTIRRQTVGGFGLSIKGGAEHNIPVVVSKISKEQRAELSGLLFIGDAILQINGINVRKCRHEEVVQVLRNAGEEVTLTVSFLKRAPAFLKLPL


Assays:
Experiment in all cases: holdup assay
Design in all cases: key: below the threshold = too weak to quantify, mostly under pKd 3.1 to 4
Conditions in all cases: plain residues with an end cap or a label only (N-terminal biotin on a linker: ado-ado)
[1] = biological target: AHNAK1, Q09666
[2] = biological target: T1, CARD11, Q9BXL7
[3] = biological target: DLG1_2, Q12959
[4] = biological target: T2, DLG3_2, Q92796
[5] = biological target: T3, FRMPD1, Q5SYB0
[6] = biological target: FRMPD2_3, Q68DX3
[7] = biological target: T4, GRIP1_4, Q9Y3R0
[8] = biological target: GRIP2_4, Q9C0E4
[9] = biological target: GRIP2_5, Q9C0E4
[10] = biological target: GRIP2_6, Q9C0E4
[11] = biological target: HTRA1, Q92743
[12] = biological target: HTRA2, O43464
[13] = biological target: IL16_3, Q14005
[14] = biological target: IL16_4, Q14005
[15] = biological target: Inadl_9, Q8NI35
[16] = biological target: LDB3, O75112
[17] = biological target: LIMK2, P53671
[18] = biological target: T5, LIN7A, O14910
[19] = biological target: LNX1_1, Q8TBB1
[20] = biological target: LNX1_3, Q8TBB1
[21] = biological target: MAGI1_1, Q96QZ7
[22] = biological target: MAGI1_2, Q96QZ7
[23] = biological target: MAST1, Q9Y2H9
[24] = biological target: T6, MPP6, Q9NZW5
[25] = biological target: T7, MPP7, Q5T2T1
[26] = biological target: NHERF4_4, Q86UT5
[27] = biological target: PDZRN4_1, Q6ZMN7
[28] = biological target: T8, RAPGEF6, Q8TEU7
[29] = biological target: T9, SNTG1, Q9NSN8

Sequence of LIMK2, P53671 (P53671 143-248): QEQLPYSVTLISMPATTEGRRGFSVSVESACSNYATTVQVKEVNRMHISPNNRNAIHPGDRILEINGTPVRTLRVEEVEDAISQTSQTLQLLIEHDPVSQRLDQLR
Sequence of LNX1_1, Q8TBB1 (Q8TBB1 261-371): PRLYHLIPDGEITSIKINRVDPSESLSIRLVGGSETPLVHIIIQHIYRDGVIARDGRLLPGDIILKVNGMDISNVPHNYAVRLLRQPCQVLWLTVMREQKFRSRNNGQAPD
Sequence of GRIP2_6, Q9C0E4 (Q9C0E4 648-740): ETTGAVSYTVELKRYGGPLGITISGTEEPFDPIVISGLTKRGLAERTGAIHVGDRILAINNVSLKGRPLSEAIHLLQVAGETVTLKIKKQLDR
Sequence of LNX1_3, Q8TBB1 (Q8TBB1 500-596): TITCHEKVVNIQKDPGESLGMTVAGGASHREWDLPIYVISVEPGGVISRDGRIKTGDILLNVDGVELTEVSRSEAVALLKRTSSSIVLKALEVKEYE
Sequence of HTRA1, Q92743 (Q92743 360-477): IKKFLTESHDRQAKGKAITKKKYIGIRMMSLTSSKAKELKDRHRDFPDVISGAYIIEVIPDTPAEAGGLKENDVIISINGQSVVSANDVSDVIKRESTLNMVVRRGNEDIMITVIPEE
Sequence of GRIP2_5, Q9C0E4 (Q9C0E4 544-642): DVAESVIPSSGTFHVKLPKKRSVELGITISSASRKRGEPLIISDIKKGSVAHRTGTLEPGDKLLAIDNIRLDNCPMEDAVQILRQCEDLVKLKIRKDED
Sequence of NHERF4_4, Q86UT5 (Q86UT5 464-550): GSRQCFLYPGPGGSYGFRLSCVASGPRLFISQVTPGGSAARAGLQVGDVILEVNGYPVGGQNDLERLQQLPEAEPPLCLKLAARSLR
Sequence of DLG1_2, Q12959 (Q12959 314-412): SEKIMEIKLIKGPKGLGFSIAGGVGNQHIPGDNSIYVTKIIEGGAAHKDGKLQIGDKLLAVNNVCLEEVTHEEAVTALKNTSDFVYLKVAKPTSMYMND
Sequence of MAGI1_1, Q96QZ7 (Q96QZ7 1-106): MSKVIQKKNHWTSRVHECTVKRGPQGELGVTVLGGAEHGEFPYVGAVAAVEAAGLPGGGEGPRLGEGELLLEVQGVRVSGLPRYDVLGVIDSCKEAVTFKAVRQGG
Sequence of MAST1, Q9Y2H9 (Q9Y2H9 962-1065): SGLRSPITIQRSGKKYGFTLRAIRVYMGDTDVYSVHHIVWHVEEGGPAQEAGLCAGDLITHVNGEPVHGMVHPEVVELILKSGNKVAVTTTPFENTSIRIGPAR
Sequence of LDB3, O75112 (O75112 1-94): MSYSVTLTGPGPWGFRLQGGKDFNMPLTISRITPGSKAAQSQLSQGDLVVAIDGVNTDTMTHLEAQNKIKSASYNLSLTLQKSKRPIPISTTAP
Sequence of IL16_4, Q14005 (Q14005 1229-1329): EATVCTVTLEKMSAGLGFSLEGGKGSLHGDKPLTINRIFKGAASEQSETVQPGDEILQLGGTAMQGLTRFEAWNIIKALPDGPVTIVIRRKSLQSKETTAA
Sequence of AHNAK1, Q09666 (Q09666 4-100): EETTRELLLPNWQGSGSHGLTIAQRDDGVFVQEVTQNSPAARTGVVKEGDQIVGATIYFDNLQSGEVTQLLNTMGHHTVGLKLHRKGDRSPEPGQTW
Sequence of MAGI1_2, Q96QZ7 (Q96QZ7 456-580): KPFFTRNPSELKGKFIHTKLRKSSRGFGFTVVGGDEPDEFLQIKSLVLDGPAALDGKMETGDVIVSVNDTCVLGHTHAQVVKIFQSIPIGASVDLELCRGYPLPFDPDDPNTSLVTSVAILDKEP
Sequence of PDZRN4_1, Q6ZMN7 (Q6ZMN7 213-318): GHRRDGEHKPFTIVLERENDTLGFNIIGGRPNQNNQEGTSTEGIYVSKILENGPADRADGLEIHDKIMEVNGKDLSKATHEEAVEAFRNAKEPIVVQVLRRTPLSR
Sequence of HTRA2, O43464 (O43464 355-458): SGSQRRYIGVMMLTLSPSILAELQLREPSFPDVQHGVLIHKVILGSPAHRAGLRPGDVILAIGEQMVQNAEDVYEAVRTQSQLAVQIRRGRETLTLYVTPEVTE
Sequence of FRMPD2_3, Q68DX3 (Q68DX3 1073-1166): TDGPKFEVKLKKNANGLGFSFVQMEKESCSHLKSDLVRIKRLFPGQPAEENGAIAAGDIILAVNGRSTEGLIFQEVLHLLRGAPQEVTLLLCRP
Sequence of GRIP2_4, Q9C0E4 (Q9C0E4 446-548): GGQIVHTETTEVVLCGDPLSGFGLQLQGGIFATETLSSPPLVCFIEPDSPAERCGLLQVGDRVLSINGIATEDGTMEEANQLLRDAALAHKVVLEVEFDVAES
Sequence of IL16_3, Q14005 (Q14005 1107-1207): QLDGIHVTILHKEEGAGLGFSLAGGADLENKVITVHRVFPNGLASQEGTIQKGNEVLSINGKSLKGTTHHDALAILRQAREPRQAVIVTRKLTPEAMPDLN
Sequence of Inadl_9, Q8NI35 (Q8NI35 1530-1615): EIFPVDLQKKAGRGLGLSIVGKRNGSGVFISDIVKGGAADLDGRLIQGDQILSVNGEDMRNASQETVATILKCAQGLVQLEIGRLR

Binder	pKd [1]	pKd [2]	pKd [3]	pKd [4]	pKd [5]	pKd [6]	pKd [7]	pKd [8]	pKd [9]	pKd [10]	pKd [11]	pKd [12]	pKd [13]	pKd [14]	pKd [15]	pKd [16]	pKd [17]	pKd [18]	pKd [19]	pKd [20]	other results
NLSIEKETKL [ASNSD1, Q9NWL6]	below the threshold	below the threshold	3.93	4.24	below the threshold	below the threshold	below the threshold	below the threshold	below the threshold	below the threshold	below the threshold	below the threshold	below the threshold	below the threshold	below the threshold	below the threshold	below the threshold	below the threshold	below the threshold	below the threshold	pKd [21]: below the threshold; pKd [22]: below the threshold; pKd [23]: 4.73; pKd [24]: below the threshold; pKd [25]: below the threshold; pKd [26]: below the threshold; pKd [27]: 4.83; pKd [28]: below the threshold; pKd [29]: 4
EVNETDDTKM [KCNJ1, P48048]	below the threshold	below the threshold	below the threshold	3.63	below the threshold	below the threshold	below the threshold	below the threshold	below the threshold	3.52	below the threshold	below the threshold	below the threshold	3.64	below the threshold	below the threshold	below the threshold	3.52	3.92	below the threshold	pKd [21]: below the threshold; pKd [22]: below the threshold; pKd [23]: 4.46; pKd [24]: below the threshold; pKd [25]: below the threshold; pKd [26]: below the threshold; pKd [27]: below the threshold; pKd [28]: below the threshold; pKd [29]: 3.54
VNKSKLLTDV [KCNA1, Q09470]	below the threshold	below the threshold	4.55	4.7	below the threshold	below the threshold	below the threshold	below the threshold	below the threshold	below the threshold	below the threshold	below the threshold	below the threshold	below the threshold	below the threshold	below the threshold	below the threshold	below the threshold	below the threshold	below the threshold	pKd [21]: below the threshold; pKd [22]: 4.19; pKd [23]: 4.3; pKd [24]: below the threshold; pKd [25]: below the threshold; pKd [26]: below the threshold; pKd [27]: below the threshold; pKd [28]: 3.53; pKd [29]: below the threshold

Continued, in another order:

pKd [1]	pKd [2]	pKd [3]	pKd [4]	pKd [5]	pKd [6]	pKd [7]	pKd [8]	pKd [9]	pKd [10]	pKd [11]	pKd [12]	pKd [13]	pKd [14]	pKd [15]	pKd [16]	pKd [17]	pKd [18]	pKd [19]	pKd [20]	Binder	other results
below the threshold	below the threshold	4.64	4.69	below the threshold	below the threshold	below the threshold	below the threshold	below the threshold	below the threshold	below the threshold	below the threshold	below the threshold	below the threshold	below the threshold	below the threshold	below the threshold	below the threshold	below the threshold	below the threshold	SKENVQETQI [LRRC4B, Q9NT99]	pKd [21]: below the threshold; pKd [22]: below the threshold; pKd [23]: 3.97; pKd [24]: below the threshold; pKd [25]: below the threshold; pKd [26]: below the threshold; pKd [27]: 4.18; pKd [28]: 3.52; pKd [29]: 4.94
below the threshold	below the threshold	below the threshold	below the threshold	below the threshold	below the threshold	below the threshold	below the threshold	below the threshold	below the threshold	below the threshold	below the threshold	below the threshold	3.69	below the threshold	below the threshold	below the threshold	below the threshold	below the threshold	below the threshold	TPPAAKKSRI [BAZ1A, Q9NRL2]	pKd [21]: below the threshold; pKd [22]: below the threshold; pKd [23]: 3.9; pKd [24]: below the threshold; pKd [25]: below the threshold; pKd [26]: below the threshold; pKd [27]: below the threshold; pKd [28]: 3.53; pKd [29]: below the threshold
